Measured values published in paper PMC6829862, “Gγ and Gα Identity Dictate a G-Protein Heterotrimer Plasma Membrane Targeting” (Cells, 2019).

B1: Citrine–Gαi3 (natural protein)
chain: MGCTLSAEDKAAVERSKMIDRNLREDGEKAAKEVKLLLLGAGESGKSTIVKQMKIIHEDGYSEDECKQYKVVVYSNTIQSIIAIIRAMGRLKIDFGEAARADDARQLFVLAGSAEEGVMTPELAGVIKRLWRDGGVQACFSRSREYQLNDSASYYLNDLDRISQSNYIPTQQDVLRTRVKTTGIVETHFTFKDLYFKMFDVGGQRSERKKWIHCFEGVTAIIFCVALSDYDLVLAEDEEMNRMHESMKLFDSICNNKWFTETSIILFLNKKDLFEEKIKRSPLTICYPEYTGSNTYEEAAAYIQCQFEDLNRRKDTKEIYTHFTCATDTKNVQFVFDAVTDVIIKNNLKECGLY
notes: cDNA in pcDNA3.1+ from UMR cDNA Resource Center; also called loop-tagged Gαi3; source: HEK 293, transiently transfected, in living cells; not shown: Citrine, internal (after residue 114), kept
B2: Citrine–GαsIEK (natural protein)
chain: MGCLGNSKTEDQRNEEKAQREANKKAAAQLQKDKQVYRATHRLLLLGAGESGKSTIVKQMRILHVNGFNGNSDGEKATKVQDIKNNLKEAIETIVAAMSNLVPPVELANPENQFRVDYILSVMNVPDFDFPPEFYEHAKALWEDEGVRACYERSNEYQLIDCAQYFLDKIDVIKQADYVPSDQDLLRCRVLTSGIFETKFQVDKVNFHMFDVGGQRDERRKWIQCFNDVTAIIFVVASSSYNMVIREDNQTNRLQEALNLFKSIWNNRWLRTISVILFLNKQDLLAEKVLAGKSKIEDYFPEFARYTTPEDATPEPGEDPRVTRAKYFIRDEFLRISTASGDGRHYCYPHFTCAVDTENIRRVFNDCRDIIQRMHLRQYELL
notes: Gαs subunit with the conserved region Ile26–Glu27–Lys28 (G.HN.43–45) changed to three alanines; cDNA from UMR cDNA Resource Center; the L1 loop Glu71-Ser82 exchanged for the fluorescent protein as in m1; Mutations made with the Quick Change method on the Gαs fusion; also called mutant GαsIEK protein; source: HEK 293, transiently transfected; in living cells (FLIM-FRET) and in cell lysate or …

Biological target: T1, mCherry–Gβ1γ2 dimer (UniProt P62873 1-340; P59768 1-71, 20-carbon geranylgeranyl lipid on the cysteine of the C-terminal CaaX motif (said of Gγ2 in general))
T1 construct: Gβ1 subunit; cDNA in pcDNA3.1+ from UMR cDNA Resource Center; FP cloned at the N-terminus; Gγ2 subunit; source: HEK 293, transiently co-transfected (mCherry–Gβ1 and Gγ2), in living cells; not shown: mCherry, N-terminal, kept
Test: FRET or BRET; FLIM-FRET in living transiently transfected HEK 293 cells at 37 °C; donor Citrine in Gα, acceptor mCherry on Gβ1 with the appropriate Gγ; efficiency E = 1 − τda/τd from the short lifetime component τ1 (donor alone 2.7 ± 0.1 ns), analysed only at the plasma membrane; GppNHp added to the culture did not change the signal
Settings: partners not purified

Row | Binder | FRET efficiency [%]
1 | B1 | 50
2 | B2 | 12.9
